Assay results as given in PMC8497620, “Structure and inhibition of Cryptococcus neoformans sterylglucosidase to develop antifungal agents” (Nature Communications, 2021).

Biological target: C. neoformans Sgl1 (Cryptococcus neoformans var. grubii, UniProt J9W473)
Experiment: H/D exchange mass spectrometry mapping of disordered regions
Conditions: H/D exchange MS of C. neoformans Sgl1; per peptide (amino acids Start-End, Sequence); Fig S2a
Protocol: HDX-MS reactions were performed in a similar manner as is outlined in previous publications. HDX reactions were conducted in a final reaction volume of 50 µL with a final Sgl1 concentration of 0.6 µM (30 pmol). Exchange was carried out in triplicate for a single time point (3 s at 4 °C). Hydrogen deuterium exchange was initiated by the addition of 48 µL of D2O buffer (100 mM NaCl (20 mM pH 6.0 Bis-Tris), 90.5% D2O (V/V) to 1 µL of protein and 1 µL of H2O. Exchange was terminated by the addition of ice-cold acidic quench buffer, resulting in a final concentration of 0.6 M guanidine-HCl and 0.9% FA post quench. Samples were immediately frozen in liquid nitrogen and stored at −80 °C. Fully deuterated samples were generated by first denaturing the protein in 2 M guanidine for 5 min at 20 °C. Following denaturing, 48 µL of D2O buffer was added to the denatured protein and allowed to incubate for 5 min at 20 °C before quenching. Samples were flash frozen and stored at −80 °C until injection onto the ultra-performance liquid chromatography (UPLC) system for proteolytic cleavage, peptide separation, and injection onto a QTOF for mass analysis.
Protein sample was rapidly thawed and injected onto a UPLC system kept in a cold box at 2 °C. The protein was run over two immobilized pepsin columns (Applied Biosystems; Porosyme 2-3131-00) and the peptides were collected onto a VanGuard Precolumn trap (Waters). The trap was eluted in line with an ACQUITY 1.7 μm particle, 100 × 1 mm^2 C18 UPLC column (Waters), using a gradient of 5–36% B (Buffer A 0.1% formic acid, Buffer B 100% acetonitrile) over 16 min. MS experiments were performed on an Impact QTOF (Bruker) and peptide identification was done by running tandem MS (MS/MS) experiments run in data-dependent acquisition mode. The resulting MS/MS dataset was analyzed using PEAKS7 (PEAKS) and a false discovery rate was set at 1% using a database of purified proteins and known contaminants. HDExaminer Software (Sierra Analytics) was used to automatically calculate the level of deuterium incorporation into each peptide. All peptides were manually inspected for correct charge state and presence of overlapping peptides. Deuteration levels were calculated using the centroid of the experimental isotope clusters, with correction for back exchange generated using the fully deuterated sample. The mass spectrometry proteomics data have been deposited to the ProteomeXchange Consortium via the PRIDE partner repository[31] with the dataset identifier PXD024981.

Sequence of C. neoformans Sgl1 (J9W473 entry or part of it): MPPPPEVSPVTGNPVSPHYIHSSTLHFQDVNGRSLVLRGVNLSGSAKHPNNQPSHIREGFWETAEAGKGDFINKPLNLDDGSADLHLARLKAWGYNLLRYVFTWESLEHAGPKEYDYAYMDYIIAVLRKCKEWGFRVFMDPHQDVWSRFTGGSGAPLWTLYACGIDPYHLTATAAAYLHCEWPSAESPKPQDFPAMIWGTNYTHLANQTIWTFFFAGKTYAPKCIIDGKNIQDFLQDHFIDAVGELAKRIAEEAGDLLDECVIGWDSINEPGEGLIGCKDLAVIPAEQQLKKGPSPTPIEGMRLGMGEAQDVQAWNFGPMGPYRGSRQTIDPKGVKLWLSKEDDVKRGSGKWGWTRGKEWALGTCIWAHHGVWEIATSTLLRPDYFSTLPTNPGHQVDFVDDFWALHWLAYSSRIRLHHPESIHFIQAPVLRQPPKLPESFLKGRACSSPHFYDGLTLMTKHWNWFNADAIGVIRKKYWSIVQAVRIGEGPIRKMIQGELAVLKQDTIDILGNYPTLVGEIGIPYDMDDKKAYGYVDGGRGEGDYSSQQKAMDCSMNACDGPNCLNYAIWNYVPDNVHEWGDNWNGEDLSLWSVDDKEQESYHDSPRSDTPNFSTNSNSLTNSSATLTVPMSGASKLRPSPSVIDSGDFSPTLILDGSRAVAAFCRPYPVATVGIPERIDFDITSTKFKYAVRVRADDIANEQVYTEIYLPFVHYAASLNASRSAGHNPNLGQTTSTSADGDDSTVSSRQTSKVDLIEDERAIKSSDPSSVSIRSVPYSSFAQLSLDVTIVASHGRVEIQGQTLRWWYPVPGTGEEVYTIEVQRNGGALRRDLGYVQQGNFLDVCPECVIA

Substance | % Deuterium incorporation, Average [%]
IGWDSINEPGEGLIGCKDL | 4.5
KGRACSSPHFYDGLTL | 28.7
FSTLPTNPGHQVDF | 50.7
TVPMSGASKLRPSPSVIDSGDFSPTL | 57.8
SRFTGGSGAPLWTL | 5.6
IQAPVLRQPPKLPES | 35.7
INKPLNLDDGSADLHL | 21.9
MRLGMGEAQDVQA | 6.8
WSVDDKEQESY | 71.0
IQAPVLRQPPKLPESFL | 31.8
VRIGEGPIRKMIQGEL | 21.0
VTIVASHGRVEIQGQTLRWWYPVPGTGEEVY | 18.9
TLMTKHWNWFNA | 34.8
SLEHAGPKEYDYA | 6.0
RVFMDPHQDVW | 3.4
HCEWPSAESPKPQDFPAM | 59.9
IKSSDPSSVSIRSVPYSSF | 106.5
YVQQGNFL | 101.5
LVLRGVNL | 7.5
YLHCEWPSAESPKPQDF | 52.9
NASRSAGHNPNLGQTTSTSADGDDST | 100.5
LDVCPEC | 80.8

Substance | % Deuterium incorporation, Average [%]
NYAIWNYVPDNVHE | 17.1
TVPMSGASKLRPSPSV | 90.4
STNSNSLTNSSAT | 101.5
LRWWYPVPGTGEEVY | 19.1
ILDGSRAVAA | 26.4
LTVPMSGASKLRPSPSVIDSGDFSPTL | 59.4
RWWYPVPGTG | 40.0
YVDGGRGEGDY | 69.5
YTHLANQTIWTFF | 3.1
WALGTCIWAHHGVWE | 1.7
LTVPMSGASKLRPSPSVIDSGD | 65.2
WAHHGVWEI | 2.5
YVDGGRGEGDYSSQQKAMD | 51.4
AVLKQDTID | 23.0
DVQAWNFGPMGPYRGSRQTIDPKGVKL | 26.1
AVRVRADDIANE | 16.0
ASKLRPSPSV | 76.0
VIRKKYWSIVQA | 46.8
TGGSGAPLWTL | 5.6
YLHCEWPSAESPKPQDFPAM | 56.9
RFTGGSGAPLWTL | 6.3
NASRSAGHNPNLGQTTSTSADGDDSTVSSRQTSKVDLIE | 100.2

Substance | % Deuterium incorporation, Average [%]
IQAPVLRQPPKLPESF | 36.0
KYAVRVRADDIANE | 12.4
WSRFTGGSGAPLWTL | 5.9
VGELAKRIAEEAGDL | 5.8
GQTTSTSADGDDSTVSSRQTSKVDL | 102.4
RAIKSSDPSS | 103.0
STNSNSLTNSSATLTVPMSGASKLRPSPSVIDSGDFSPTL | 72.8
AASLNASRSAGHNPNLGQTTSTSADGDDSTVSSRQTSKVDL | 100.9
SADGDDSTVSSRQTSKVDL | 103.2
WLSKEDDVKRGSGKWGWTRGKEWALGTCI | 17.4
YACGIDPYHLTA | 15.5
HDSPRSDTPNF | 91.2
FLKGRACSSPHF | 26.5
STNSNSLTNSSA | 102.0
ILDGSRAVAAF | 24.1
ERAIKSSDPSS | 103.4
VNLSGSAKHPNNQPSHIREGF | 45.8
EIATSTL | 59.2
IYLPFVHY | 2.9
IIDGKNIQD | 14.1
DVTIVASHGRVEIQGQT | 25.2
DITSTKF | 7.2

Substance | % Deuterium incorporation, Average [%]
MRLGMGEAQ | 9.3
DVTIVASHGRVEIQGQTL | 21.1
WLSKEDDVKRGSGKWGWTRGKEWALGTCIWAHHGVWE | 11.7
RVFMDPHQDVWSRF | 4.4
IDAVGEL | 5.7
NACDGPNCLNY | 17.8
VGEIGIPYDMDDKKAYGYVDGGRGEGDYSSQQKAMD | 19.4
WESLEHAGPKEYD | 6.6
VIGWDSINEPGEGL | 4.0
INKPLNLDDGSADL | 26.9
RRDLGYV | 59.6
LKKGPSPTPIEG | 11.2
RAIKSSDPSSVSIRSVPYSSF | 104.9
AVIPAEQQLKKGPSPTPIEGM | 29.8
KDLAVIPAEQQLKKGPSPTPIEG | 24.0
RWWYPVPGTGE | 36.9
INKPLNL | 46.8
SLEHAGPKEYD | 7.5
DVTIVASHGRVEIQGQTLRWWYPVPGTGEEVY | 16.6
WALHWLAY | 4.9
SYHDSPRSDTPNF | 96.9
TVGIPERIDF | 7.3

Substance | % Deuterium incorporation, Average [%]
AASLNASRSAGHNPNLGQTTSTSADGDD | 99.7
VQRNGGAL | 39.7
STNSNSLTNSSATLTVPMSG | 99.8
WESLEHAGPKEYDY | 7.1
NASRSAGHNPNLGQTTSTSADGDD | 102.3
YVDGGRGEGD | 72.5
FCRPYPVA | 21.1
RADDIANE | 33.8
RSVPYSSF | 93.7
RIRLHHPESIHF | 6.5
AVRIGEGPIRKMIQGEL | 20.2
IGCKDLAVIPAEQQLKKGPSPTPIEG | 24.8
IEVQRNGGAL | 28.7
ASKLRPSPSVIDSGDFSPTLIL | 40.9
NYVPDNVHEWGDNW | 32.4
VTIVASHGRVEIQGQTL | 23.2
NACDGPNCLN | 19.4
DDGSADLHL | 35.8
WALGTCI | 3.3
ILGNYPTL | 27.3
KKGPSPTPIEG | 6.7
VGEIGIPYDMDDKKAYGYVDGGRGEGDY | 21.5
